The values that follow come from article PMC6488673, “Crystal structure of the Lin28-interacting module of human terminal uridylyltransferase that regulates let-7 expression”.

For this data set, the target named is T1, hTUT4_N;hLin28A (human;human, UniProt Q5TAX3;Q9H9Z2 253-578+611-723;1-209, internal_change|).
T1 sequence 1: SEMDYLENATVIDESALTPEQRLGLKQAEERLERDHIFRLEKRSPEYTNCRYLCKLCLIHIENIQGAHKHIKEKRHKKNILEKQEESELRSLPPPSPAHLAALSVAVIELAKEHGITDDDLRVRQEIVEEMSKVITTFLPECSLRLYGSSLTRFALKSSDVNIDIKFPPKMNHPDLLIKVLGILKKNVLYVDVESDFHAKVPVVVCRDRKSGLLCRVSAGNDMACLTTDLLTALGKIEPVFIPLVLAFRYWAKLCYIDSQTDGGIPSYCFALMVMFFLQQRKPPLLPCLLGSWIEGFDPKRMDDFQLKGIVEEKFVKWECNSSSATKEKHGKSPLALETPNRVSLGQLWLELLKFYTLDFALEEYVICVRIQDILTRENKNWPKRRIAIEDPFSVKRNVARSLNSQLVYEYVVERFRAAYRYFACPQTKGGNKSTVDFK
T1 sequence 2: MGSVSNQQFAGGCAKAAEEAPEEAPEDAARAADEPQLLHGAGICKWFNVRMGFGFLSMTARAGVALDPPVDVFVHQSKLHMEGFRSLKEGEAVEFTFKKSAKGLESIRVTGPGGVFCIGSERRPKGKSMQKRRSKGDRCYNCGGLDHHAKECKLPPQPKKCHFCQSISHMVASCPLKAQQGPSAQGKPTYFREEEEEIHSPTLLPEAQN
The experiment in a line: EMSA; ternary complex; 300 nM each protein, 100 nM RNA; EMSA: 50 mM Tris-HCl pH 8.5, 100 mM NaCl, 10 mM MgCl2, 10 mM beta-mercaptoethanol, 10% glycerol, 10 min, room temperature; Tb(III) footprinting: same salts, 5%. Particulars: protein: recombinant;recombinant; tags: C-terminal expression tag, residues 724-731 (pET22b, XhoI, Ni-NTA);N-terminal His tag (pET28b; Ni-NTA purified); copies: 1;1; label: none in EMSA (ethidium bromide stain); hairpin.

B1: pre-let-7a-1 (structured_RNA)
RNA: UGAGGUAGUAGGUUGUAUAGUUUUAGGGUCACACCCACCACUGGGAGAUAACUAUACAAUCUACUGUCUUUC
For the molecule B1, the binding result is “binds”.
